Measured values published in patent US20230045262A1 (Hoffmann-La Roche, published 2023).
Where two headings read alike, the source gives them in different places.

Legend:
[1] = biological target: T1, human 4-1BB on cells (activated human T cells; HeLa-hu4-1BB-NFκB-luc clone 26; Jurkat-hu4-1BB-NFκB-luc2) (human, UniProt Q07011 24-255); assay: flow cytometry on Jurkat-hu4-1BB-NFκB-luc2 cells
T1 construct: also called CD137; cell-expressed 4-1BB

[2] = biological target: T1, human 4-1BB on cells (activated human T …); assay: cell-based or functional assay
[3] = biological target: T2, hu4-1BB-SNAP fusion on Hek293 EBNA cells (human, UniProt Q07011 24-255, labeled with the FRET donor Terbium); assay: TagLite FRET competition on hu4-1BB-SNAP cells; competitor 0.6 nM d2-labelled 20H4.9 IgG; 4 h
T2 construct: also called hu 4-1BB (TagLite); not shown: SNAP tag

[4] = biological target: T3, human FAP on cells (WM-266-4; NIH/3T3-huFAP clone 19) (human, UniProt Q12884 1-760); assay: flow cytometry on WM-266-4 cells
T3 construct: transfected in NIH/3T3-huFAP clone 19

[5] = biological target: T1, human 4-1BB on cells (activated human T …); assay: flow cytometry on activated human CD8+ T cells, PE anti-human Fc secondary
[6] = biological target: T1, human 4-1BB on cells (activated human T …); assay: cell-based or functional assay; remark: listed apart in the source
[7] = biological target: T1, human 4-1BB on cells (activated human T …); assay: flow cytometry on activated human CD4+ T cells, PE anti-human Fc secondary
[8] = biological target: T1, human 4-1BB on cells (activated human T …); assay: cell-based or functional assay; remark: listed apart in the source
[9] = biological target: T3, human FAP on cells (WM-266-4; …); assay: flow cytometry on NIH/3T3-huFAP clone 19 cells
[10] = biological target: T2, hu4-1BB-SNAP fusion on Hek293 EBNA cells; assay: TagLite FRET competition on hu4-1BB-SNAP cells; competitor 0.6 nM d2-labelled 20H4.9 IgG; 4 h; remark: listed apart in the source

Binder	EC50 [1] [nM]	EC50 of Jurkat-hu4-1BB-NFκB-luc2 reporter cell line activation curves in the presence of CEA-expressing MKN45 tumor cells [2] [nM]	EC50 [3] [nM]	EC50 interval [3] [nM]	EC50 [4] [nM]	EC50 [5] [nM]	EC50 of human PBMC activation curves, % CD25+ CD4 (with NIH/3T3-huFAP cells and anti-CD3) [6] [nM]	EC50 of human PBMC activation curves, % CD25+ CD8 (with NIH/3T3-huFAP cells and anti-CD3) [6] [nM]	EC50 of human PBMC activation curves, % proliferating CD4 (with NIH/3T3-huFAP cells and anti-CD3) [6] [nM]	EC50 of human PBMC activation curves, % proliferating CD8 (with NIH/3T3-huFAP cells and anti-CD3) [6] [nM]	EC50 [7] [nM]	EC50 of activation of the NFκB signaling pathway (luciferase, HeLa-hu4-1BB-NFκB-luc), no FAP+ cells [8] [nM]	EC50 of activation of the NFκB signaling pathway (luciferase, HeLa-hu4-1BB-NFκB-luc), with 3T3-huFAP cells [8] [nM]	EC50 of activation of the NFκB signaling pathway (luciferase, HeLa-hu4-1BB-NFκB-luc), with WM-266-4 cells [8] [nM]	EC50 [9] [nM]	EC50 [10] [nM]	EC50 interval [10] [nM]
4-1BB (20H4.9)/FAP (4B9) P329GLALA IgG1 2+1 (hole-VH) (bispecific antibody, also called 4-1BB (20H4.9)×FAP (4B9) 2+1; 20H4.9/4B9 2+1) heavy 1: QVQLQQWGAGLLKPSETLSLTCAVYGGSFSGYYWSWIRQSPEKGLEWIGEINHGGYVTYNPSLESRVTISVDTSKNQFSLKLSSVTAADTAVYYCARDYGPGNYDWYFDLWGRGTLVTVSSASTKGPSVFPLAPSSKSTSGGTAALGCLVKDYFPEPVTVSWNSGALTSGVHTFPAVLQSSGLYSLSSVVTVPSSSLGTQTYICNVNHKPSNTKVDKKVEPKSCDKTHTCPPCPAPEAAGGPSVFLFPPKPKDTLMISRTPEVTCVVVDVSHEDPEVKFNWYVDGVEVHNAKTKPREEQYNSTYRVVSVLTVLHQDWLNGKEYKCKVSNKALGAPIEKTISKAKGQPREPQVCTLPPSRDELTKNQVSLSCAVKGFYPSDIAVEWESNGQPENNYKTTPPVLDSDGSFFLVSKLTVDKSRWQQGNVFSCSVMHEALHNHYTQKSLSLSPGGGGGSGGGGSGGGGSGGGGSEVQLLESGGGLVQPGGSLRLSCAASGFTFSSYAMSWVRQAPGKGLEWVSAIIGSGASTYYADSVKGRFTISRDNSKNTLYLQMNSLRAEDTAVYYCAKGWFGGFNYWGQGTLVTVSS heavy 2: not shown light: not shown	–	–	1.6	1.2 to 2.3	0.7	0.1	0.005	0.02	0.004	0.001	0.1	0.73	0.07	0.08	1.7	–	–
4-1BB (20H4.9)/FAP (4B9) P329GLALA IgG1 4+1 (hole-VH) (bispecific antibody, also called 4-1BB (20H4.9)×FAP (4B9) 4+1; 20H4.9/4B9 4+1) heavy 1: QVQLQQWGAGLLKPSETLSLTCAVYGGSFSGYYWSWIRQSPEKGLEWIGEINHGGYVTYNPSLESRVTISVDTSKNQFSLKLSSVTAADTAVYYCARDYGPGNYDWYFDLWGRGTLVTVSSASTKGPSVFPLAPSSKSTSGGTAALGCLVKDYFPEPVTVSWNSGALTSGVHTFPAVLQSSGLYSLSSVVTVPSSSLGTQTYICNVNHKPSNTKVDKKVEPKSCDGGGGSGGGGSQVQLQQWGAGLLKPSETLSLTCAVYGGSFSGYYWSWIRQSPEKGLEWIGEINHGGYVTYNPSLESRVTISVDTSKNQFSLKLSSVTAADTAVYYCARDYGPGNYDWYFDLWGRGTLVTVSSASTKGPSVFPLAPSSKSTSGGTAALGCLVKDYFPEPVTVSWNSGALTSGVHTFPAVLQSSGLYSLSSVVTVPSSSLGTQTYICNVNHKPSNTKVDKKVEPKSCDKTHTCPPCPAPEAAGGPSVFLFPPKPKDTLMISRTPEVTCVVVDVSHEDPEVKFNWYVDGVEVHNAKTKPREEQYNSTYRVVSVLTVLHQDWLNGKEYKCKVSNKALGAPIEKTISKAKGQPREPQVCTLPPSRDELTKNQVSLSCAVKGFYPSDIAVEWESNGQPENNYKTTPPVLDSDGSFFLVSKLTVDKSRWQQGNVFSCSVMHEALHNHYTQKSLSLSPGGGGGSGGGGSGGGGSGGGGSEVQLLESGGGLVQPGGSLRLSCAASGFTFSSYAMSWVRQAPGKGLEWVSAIIGSGASTYYADSVKGRFTISRDNSKNTLYLQMNSLRAEDTAVYYCAKGWFGGFNYWGQGTLVTVSS heavy 2: not shown light: not shown	–	–	–	–	1.6	0.1	0.006	0.009	0.003	0.002	0.1	0.13	0.04	0.05	2	0.5	0.3 to 0.7
2+1 4-1BB (20H4.9)/CEA(A5B7P) human IgG1 PGLALA, (G4S)4, hole-VH (bispecific antibody, also called 4-1BB (20H4.9)×CEA (A5B7P) 2+1; C-terminal VH/VL fusion of the A5B7P clone) heavy 1: QVQLQQWGAGLLKPSETLSLTCAVYGGSFSGYYWSWIRQSPEKGLEWIGEINHGGYVTYNPSLESRVTISVDTSKNQFSLKLSSVTAADTAVYYCARDYGPGNYDWYFDLWGRGTLVTVSSASTKGPSVFPLAPSSKSTSGGTAALGCLVKDYFPEPVTVSWNSGALTSGVHTFPAVLQSSGLYSLSSVVTVPSSSLGTQTYICNVNHKPSNTKVDKKVEPKSCDKTHTCPPCPAPEAAGGPSVFLFPPKPKDTLMISRTPEVTCVVVDVSHEDPEVKFNWYVDGVEVHNAKTKPREEQYNSTYRVVSVLTVLHQDWLNGKEYKCKVSNKALGAPIEKTISKAKGQPREPQVCTLPPSRDELTKNQVSLSCAVKGFYPSDIAVEWESNGQPENNYKTTPPVLDSDGSFFLVSKLTVDKSRWQQGNVFSCSVMHEALHNHYTQKSLSLSPGGGGGSGGGGSGGGGSGGGGSEVKLVESGGGLVQPGGSLRLSCATSGFTFTDYYMNWVRQPPGKALEWLGFIGNKANGYTTEYSASVKGRFTISRDKSQSILYLQMNTLRAEDSATYYCTRDRGLRFYFDYWGQGTTLTVSS heavy 2: not shown light: not shown	0.06	0.16	–	–	–	–	–	–	–	–	–	–	–	–	–	–	–

Next, values leading:

EC50 [1] [nM]	EC50 of Jurkat-hu4-1BB-NFκB-luc2 reporter cell line activation curves in the presence of CEA-expressing MKN45 tumor cells [2] [nM]	EC50 [3] [nM]	EC50 interval [3] [nM]	EC50 [4] [nM]	EC50 [5] [nM]	EC50 of human PBMC activation curves, % CD25+ CD4 (with NIH/3T3-huFAP cells and anti-CD3) [6] [nM]	EC50 of human PBMC activation curves, % CD25+ CD8 (with NIH/3T3-huFAP cells and anti-CD3) [6] [nM]	EC50 of human PBMC activation curves, % proliferating CD4 (with NIH/3T3-huFAP cells and anti-CD3) [6] [nM]	EC50 of human PBMC activation curves, % proliferating CD8 (with NIH/3T3-huFAP cells and anti-CD3) [6] [nM]	EC50 [7] [nM]	EC50 of activation of the NFκB signaling pathway (luciferase, HeLa-hu4-1BB-NFκB-luc), no FAP+ cells [8] [nM]	EC50 of activation of the NFκB signaling pathway (luciferase, HeLa-hu4-1BB-NFκB-luc), with 3T3-huFAP cells [8] [nM]	EC50 of activation of the NFκB signaling pathway (luciferase, HeLa-hu4-1BB-NFκB-luc), with WM-266-4 cells [8] [nM]	EC50 [9] [nM]	EC50 [10] [nM]	EC50 interval [10] [nM]	Binder
0.07	0.19	–	–	–	–	–	–	–	–	–	–	–	–	–	–	–	2+1 4-1BB (20H4.9)/CEA(T84.66-LCHA) human IgG1 PGLALA, (G4S)4 hole-VH (bispecific antibody, also called 4-1BB (20H4.9)×CEA (T84.66-LCHA) 2+1) heavy 1: QVQLQQWGAGLLKPSETLSLTCAVYGGSFSGYYWSWIRQSPEKGLEWIGEINHGGYVTYNPSLESRVTISVDTSKNQFSLKLSSVTAADTAVYYCARDYGPGNYDWYFDLWGRGTLVTVSSASTKGPSVFPLAPSSKSTSGGTAALGCLVKDYFPEPVTVSWNSGALTSGVHTFPAVLQSSGLYSLSSVVTVPSSSLGTQTYICNVNHKPSNTKVDKKVEPKSCDKTHTCPPCPAPEAAGGPSVFLFPPKPKDTLMISRTPEVTCVVVDVSHEDPEVKFNWYVDGVEVHNAKTKPREEQYNSTYRVVSVLTVLHQDWLNGKEYKCKVSNKALGAPIEKTISKAKGQPREPQVCTLPPSRDELTKNQVSLSCAVKGFYPSDIAVEWESNGQPENNYKTTPPVLDSDGSFFLVSKLTVDKSRWQQGNVFSCSVMHEALHNHYTQKSLSLSPGGGGGSGGGGSGGGGSGGGGSQVQLVQSGAEVKKPGSSVKVSCKASGFNIKDTYMHWVRQAPGQGLEWMGRIDPANGNSKYVPKFQGRVTITADTSTSTAYMELSSLRSEDTAVYYCAPFGYYVSDYAMAYWGQGTLVTVSS heavy 2: not shown light: not shown
0.06	0.09	–	–	–	–	–	–	–	–	–	–	–	–	–	–	–	2+1 4-1BB (20H4.9)/CEA(A5B7P) human IgG1 PGLALA, CEA with CHCL crossfab (bispecific antibody, also called 4-1BB (20H4.9)×CEA (A5B7P) 2+1 CHCL crossfab; knob-CHCL crossfab) heavy 1: not shown heavy 2: QVQLQQWGAGLLKPSETLSLTCAVYGGSFSGYYWSWIRQSPEKGLEWIGEINHGGYVTYNPSLESRVTISVDTSKNQFSLKLSSVTAADTAVYYCARDYGPGNYDWYFDLWGRGTLVTVSSASTKGPSVFPLAPSSKSTSGGTAALGCLVEDYFPEPVTVSWNSGALTSGVHTFPAVLQSSGLYSLSSVVTVPSSSLGTQTYICNVNHKPSNTKVDEKVEPKSCDKTHTCPPCPAPEAAGGPSVFLFPPKPKDTLMISRTPEVTCVVVDVSHEDPEVKFNWYVDGVEVHNAKTKPREEQYNSTYRVVSVLTVLHQDWLNGKEYKCKVSNKALGAPIEKTISKAKGQPREPQVCTLPPSRDELTKNQVSLSCAVKGFYPSDIAVEWESNGQPENNYKTTPPVLDSDGSFFLVSKLTVDKSRWQQGNVFSCSVMHEALHNHYTQKSLSLSPGK light 1: not shown light 2: QTVLSQSPAILSASPGEKVTMTCRASSSVTYIHWYQQKPGSSPKSWIYATSNLASGVPARFSGSGSGTSYSLTISRVEAEDAATYYCQHWSSKPPTFGGGTKLEIKSSASTKGPSVFPLAPSSKSTSGGTAALGCLVKDYFPEPVTVSWNSGALTSGVHTFPAVLQSSGLYSLSSVVTVPSSSLGTQTYICNVNHKPSNTKVDKKVEPKSC
